One assay concerns the target T1, human CD40 (human, UniProt P25942 21-193).
T1 construct: also called immobilized human CD40
The experiment in a line: method not stated.

Assay [1] concerns the target T2, CD40 peptide, residues 125-144 of human CD40 (125PCPVGFFSNVSSAFEKCHPW144) (human).
T2 construct: It is the unmutated control peptide of the mutagenesis set
T2 peptide: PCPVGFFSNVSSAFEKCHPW
The experiment in a line: PEPSCAN-based ELISA on solid-phase peptides. As to the method:
The binding of antibody to each of the synthesized peptides was tested in a PEPSCAN-based ELISA. The peptide arrays were incubated with primary antibody solution (overnight at 4° C.). After washing, the peptide arrays were incubated with a 1/1000 dilution of an antibody peroxidase conjugate (SBA, cat.nr.2010-05) for one hour at 25° C. After washing, the peroxidase substrate 2,2′-azino-di-3-ethylbenzthiazoline sulfonate (ABTS) and 2 microliters/milliliter of 3 percent H₂O₂ were added. After one hour, the color development was measured. The color development was quantified with a charge coupled device (CCD)—camera and an image processing system.
A general note: An ELISA detects its analyte on a solid surface through an enzyme-linked reagent.

Assay [2] has as its target T3, human CD40 on cells (native CD40 on Ramos cells, human B cells, human monocyte-derived dendritic cells); cell … (human, UniProt P25942 21-193).
T3 construct: Endogenous CD40 on human cells; also called native CD40 protein; CD40 positive cells
The experiment in a line: FACS on live Ramos cells, goat anti-human IgG PE. As for the experimental part: (§1) In another experiment, the ability of the CD40 antibodies to bind to native CD40 protein was determined by FACS analysis with live Ramos cells. Ramos cells were harvested and blocked with 1.5 ml blocking buffer (0.1% BSA/PBS) for 30 minutes. Antibodies at various concentrations were added to cells and incubated for 1 hour. After washing, 50 ul Goat-anti-human IgG (H+L) PE antibody at 1:1000 dilution in blocking solution was added and incubated for 30 minutes. Cells were then washed with PBS and were re-suspended with […] and analyzed by FACS. The antibodies tested were the 19-21 rabbit anti-CD40 agonist antibody, SGN-40 developed by Seattle Genetics and CP870893 from Pfizer.

The target in the next assay is T4, CD40-Fc protein (Homo sapiens (Human), UniProt P25942 21-193).
T4 construct: not shown: Fc
T4 sequence (P25942 21-193 limits assumed): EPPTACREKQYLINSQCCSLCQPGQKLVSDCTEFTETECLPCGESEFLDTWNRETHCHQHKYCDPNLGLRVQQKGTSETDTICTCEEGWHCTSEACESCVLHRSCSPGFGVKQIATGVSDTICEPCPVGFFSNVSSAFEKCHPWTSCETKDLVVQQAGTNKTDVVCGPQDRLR
The experiment in a line: ELISA, plates coated with CD40-Fc protein, OD405nm. The text has this:
In order to assess the ability of the APX005 […] mutant to bind to CD40, APX005 S267E heavy chain and light chain plasmids were purified from transformed bacteria and transfected into 293-6E cell. Four days after transfection, antibody-containing culture supernatants were collected and tested for binding to CD40 using ELISA (ELISA plates coated with CD40-Fc protein).

Assay [3] deals with T3, human CD40 on cells (native CD40 on …). The experiment in a line: FACS on live Ramos cells, goat anti-human IgG (H+L) PE. As for the experimental part: as §1
Assay [4] addresses T5, fusion protein of rabbit Fc and DR5 (UniProt O14763 56-182, limits assumed).
T5 construct: Neither the species nor the order of the parts is stated; not shown: rabbit Fc
The experiment in a line: direct ELISA, 1 ug/ml rabbit Fc-DR5 fusion coated, goat anti-human IgG-HRP. As for the experimental part:
(§2) Binding selectivity of APX005 was assessed by direct ELISA to a panel of TNFR family proteins. A total of 1 μg/ml of fusion protein of rabbit Fc and CD40, RANK, TweakR, OX40, DR5 and 4-1 BB were coated on ELISA plates. Bound APX005 was detected using goat anti-human HRP-conjugated IgG.

In assay [5] the target is T6, fusion protein of rabbit Fc and RANK (UniProt Q9Y6Q6 30-212, limits assumed).
T6 construct: Neither the species nor the order of the parts is stated; not shown: rabbit Fc
T6 sequence (looked up): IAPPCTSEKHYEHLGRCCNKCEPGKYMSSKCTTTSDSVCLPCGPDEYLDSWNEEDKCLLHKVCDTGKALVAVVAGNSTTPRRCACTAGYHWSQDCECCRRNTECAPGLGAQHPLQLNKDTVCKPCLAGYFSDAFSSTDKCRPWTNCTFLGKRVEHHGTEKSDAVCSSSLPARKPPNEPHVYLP
The experiment in a line: direct ELISA, 1 ug/ml rabbit Fc-RANK fusion coated, goat anti-human IgG-HRP. As to the method: as §2

Assay [6] concerns the target T7, fusion protein of rabbit Fc and 4-1 BB (UniProt Q07011 24-186).
T7 construct: Neither the species nor the order of the parts is stated; not shown: rabbit Fc
The experiment in a line: direct ELISA, 1 ug/ml rabbit Fc-4-1BB fusion coated, goat anti-human IgG-HRP. As for the experimental part: as §2

A further assay addresses T8, mouse CD40 (mouse, UniProt P27512 20-193, limits assumed).
T8 construct: Coated on ELISA plates at 1 ug/ml
The experiment in a line: direct ELISA according to paragraph 284 (1 ug/ml mouse CD40 coated, goat anti-human IgG-HRP); y axis of the sheet reads MFI. As to the method: Cross-reactivity was assessed by direct ELISA. A total of 1 μg/ml of human CD40, monkey CD40 or mouse CD40 was coated on ELISA plates followed by incubation with 1 μg/ml of APX005 or control IgG1. Antibodies bound to CD40 were detected using goat anti-human IgG conjugated with HRP. APX005 clearly crossreacts with monkey CD40 but not mouse CD40. (FIG. 11A)

T3 sequence (P25942 21-193): as the sequence (P25942 21-193 limits assumed) above
T5 sequence (O14763 56-182 limits assumed): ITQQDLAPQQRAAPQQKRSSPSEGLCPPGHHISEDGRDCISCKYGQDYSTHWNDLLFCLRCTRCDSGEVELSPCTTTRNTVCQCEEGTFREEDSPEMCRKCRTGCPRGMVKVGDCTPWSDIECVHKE
T7 sequence (Q07011 24-186): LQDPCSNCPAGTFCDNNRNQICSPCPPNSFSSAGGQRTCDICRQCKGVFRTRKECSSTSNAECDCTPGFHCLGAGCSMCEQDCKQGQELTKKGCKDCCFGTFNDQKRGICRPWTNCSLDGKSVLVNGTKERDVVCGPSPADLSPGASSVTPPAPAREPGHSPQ
T8 sequence (P27512 20-193 limits assumed): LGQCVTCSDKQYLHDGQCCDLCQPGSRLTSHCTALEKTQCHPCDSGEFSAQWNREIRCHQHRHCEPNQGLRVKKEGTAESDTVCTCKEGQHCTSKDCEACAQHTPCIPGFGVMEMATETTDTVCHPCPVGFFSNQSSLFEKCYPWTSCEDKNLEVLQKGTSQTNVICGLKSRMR
T1 sequence (P25942 21-193 limits assumed): as the sequence (P25942 21-193 limits assumed) above

B1: APX005, humanized version of the R-8 rabbit anti-CD40 antibody (antibody, IgG1, V domains shown)
VH: QVQLVESGGGVVQPGRSLRLSCAASGFSFSSTYVCWVRQAPGKGLEWIACIYTGDGTNYSASWAKGRFTISKDSSKNTVYLQMNSLRAEDTAVYFCARPDITYGFAINFWGPGTLVTVSS
VL: DIQMTQSPSSLSASVGDRVTIKCQASQSISSRLAWYQQKPGKPPKLLIYRASTLASGVPSRFSGSGSGTDFTLTISSLQPEDVATYYCQCTGYGISWPIGGGTKVEIK
notes: also called humanized R-8; APX005 wild type
What is called Kd is the equilibrium constant for the complex coming apart. Low values mean tighter binding, high ones weaker binding. What is called EC50 is the concentration at which the effect is half-maximal. The low end stands for greater potency, the high end for weaker potency. For B1, the Kd with human CD40 was found to be 0.96 nM. Besides, the binding result in [1] is “binds”; in assay [4], “no binding”; in assay [5], “no binding”; in [6], “no binding”; with mouse CD40, “no binding”. In assay [2], the “fold higher affinity than CP870893” value turned out to be 6 fold. Also, the values for the concentration for a half-maximal effect (EC50) (with CD40-Fc protein; in assay [3]) were 0.0563 µg/mL and 0.023 µg/mL, respectively.

For the origin of these results see patent publication US20230406948A1 (APEXIGEN, published 2023).
